Measured values from publication PMC10466926 (The Journal of Biological Chemistry, 2023).
Residue numbers refer to the chain shown, from its start.

B1: VHH6 (VHH)
VHH: ELQLVESGGGLVQPGGSLSLSCEVSGFSFDDVDNFIIAWFRQAPGKEREGVSFLRKYDMSTYYAESVKGRFTISSDNARDTVYLQMTNLKPEDTAVYYCALDREGFVFEQGMDFWGKGTQVTVSS
notes: also called WT VHH6; WT; source: E. coli BL21(DE3), pRA2 vector with PelB signal peptide, purified (Ni-NTA, SEC)
B2: VHH35 (VHH)
VHH: B1 VHH with E1Q
notes: also called VHH number 35; hit clone 35; source: E. coli BL21(DE3), pRA2 vector with PelB signal peptide, purified (Ni-NTA, SEC)
B3: VHH6 D33A (VHH)
VHH: B1 VHH with D33A
notes: source: E. coli BL21(DE3), purified as the WT (Ni-NTA, SEC)
B4: VHH6 R55A (VHH)
VHH: B1 VHH with R55A
notes: as for B3
B5: VHH6 Y57A (VHH)
VHH: B1 VHH with Y57A
notes: as for B3
B6: VHH6 Y62A (VHH)
VHH: B1 VHH with Y62A
notes: as for B3
B7: VHH6 E104A (VHH)
VHH: B1 VHH with E104A
notes: as for B3
B8: VHH6 F106A (VHH)
VHH: B1 VHH with F106A
notes: as for B3
B9: VHH6 V107A (VHH)
VHH: B1 VHH with V107A
notes: as for B3
B10: VHH6 F108A (VHH)
VHH: B1 VHH with F108A
notes: as for B3

What follows are binders tested against T1, IsdH linker-NEAT3 (Staphylococcus aureus Mu50, UniProt Q931P4) (assay: ITC). Conditions: both partners purified.

In order of rising dH:
1. B1  -17.1 kcal/mol
2. B2  -16 kcal/mol

In order of rising “stoichiometry N” value:
1. B2  0.98 mol:mol
2. B1  1.1 mol:mol

These binders were tested against T2, IsdH NEAT3 (Staphylococcus aureus (Mu50 for the …, UniProt Q931P4)) (assay: ITC). Conditions: both partners purified.
T2 construct: also called NEAT3 domain (no linker)

In order of falling dH:
1. B1  -11.9 kcal/mol
2. B2  -17 kcal/mol

In order of falling “stoichiometry N” value:
1. B2  1.02 mol:mol
2. B1  0.9 mol:mol

What follows are binders tested against T3, IsdB linker-NEAT2 (Staphylococcus aureus Mu50 (by deposit …)) (assay: SPR). Conditions: both partners purified.

B1 was tested, and the Kd was 0.25 nM.

In the case of B1, the koff is reported as 4e-05 s⁻¹.

In the case of B1, the kon is reported as 160000 M⁻¹ s⁻¹.

Target: T1, IsdH linker-NEAT3
Assay: ITC
Conditions: both partners purified
Remark: another data set of the same source

In order of rising dH:
1. B10  -19.3 kcal/mol
2. B8  -16.6 kcal/mol
3. B4  -15.9 kcal/mol
4. B9  -15.9 kcal/mol
5. B3  -14.7 kcal/mol
6. B7  -13.6 kcal/mol
7. B6  -11.1 kcal/mol
8. B5  -9.7 kcal/mol

In order of rising “stoichiometry N” value:
1. B6  0.93 mol:mol
2. B4  0.94 mol:mol
3. B9  0.96 mol:mol
4. B10  0.97 mol:mol
5. B7  0.99 mol:mol
6. B3  1.01 mol:mol
7. B8  1.01 mol:mol
8. B5  1.03 mol:mol

What follows are binders tested against T1, IsdH linker-NEAT3 (assay: SPR). Conditions: both partners purified.

In order of rising Kd:
1. B3  2.08 nM
2. B10  2.6 nM
3. B8  3.1 nM
4. B7  6.4 nM
5. B9  9.7 nM
6. B4  25.4 nM
7. B6  45.4 nM
8. B5  114 nM

In order of falling koff:
1. B5  0.0144 s⁻¹
2. B4  0.00855 s⁻¹
3. B6  0.00207 s⁻¹
4. B7  0.00142 s⁻¹
5. B9  0.00105 s⁻¹
6. B10  0.00049 s⁻¹
7. B8  0.00031 s⁻¹
8. B3  0.00013 s⁻¹

In order of rising kon:
1. B6  46000 M⁻¹ s⁻¹
2. B3  62000 M⁻¹ s⁻¹
3. B8  99000 M⁻¹ s⁻¹
4. B9  109000 M⁻¹ s⁻¹
5. B5  126000 M⁻¹ s⁻¹
6. B7  151000 M⁻¹ s⁻¹
7. B10  189000 M⁻¹ s⁻¹
8. B4  284000 M⁻¹ s⁻¹

These binders were tested against T3, IsdB linker-NEAT2 (assay: ITC). Conditions: both partners purified.

B1 showed a dH of -24.2 kcal/mol.

For B1, the “stoichiometry N” value was 0.8 mol:mol.

Target: T1, IsdH linker-NEAT3
Assay: SPR
Conditions: both partners purified
Remark: another data set of the same source

Work on B5 yielded a koff of 144 s⁻¹.

Each binder was assayed against T2, IsdH NEAT3 (assay: SPR). Conditions: both partners purified.

Binder B1 has a Kd of 638 nM.

Target: T1, IsdH linker-NEAT3
Assay: SPR
Conditions: both partners purified
Remark: another data set of the same source

In order of falling Kd:
1. B1  0.53 nM
2. B2  0.53 nM

In order of falling koff:
1. B1  4.2e-05 s⁻¹
2. B2  3.5e-05 s⁻¹

In order of rising kon:
1. B2  66000 M⁻¹ s⁻¹
2. B1  81000 M⁻¹ s⁻¹

Target: T2, IsdH NEAT3
Assay: SPR
Conditions: both partners purified
Remark: another data set of the same source

In order of falling Kd:
1. B1  637 nM
2. B2  237 nM

In order of rising koff:
1. B2  0.00918 s⁻¹
2. B1  0.0235 s⁻¹

In order of rising kon:
1. B1  37000 M⁻¹ s⁻¹
2. B2  39000 M⁻¹ s⁻¹
